Laboratory results reported in PMC9214244, “Multivalent Interaction of Beta-Catenin With its Intrinsically Disordered Binding Partner Adenomatous Polyposis Coli” (Frontiers in Molecular Biosciences, 2022).
Where no end group is shown, it is not given here.

T1: armadillo (ARM) repeat domain of human β-catenin (residues 134–671) (human, UniProt P35222 134-671)
T1 construct: two residues left at the N-terminus after thrombin cleavage of GST; β-catenin, human, armadillo repeat domain, residues 134-671; plasmid a gift from W. I. Weis; source: E. coli C41, purified (glutathione-Sepharose, thrombin cleavage on the resin, Mono-Q); not shown: GST, N-terminal, cleaved
T1 sequence: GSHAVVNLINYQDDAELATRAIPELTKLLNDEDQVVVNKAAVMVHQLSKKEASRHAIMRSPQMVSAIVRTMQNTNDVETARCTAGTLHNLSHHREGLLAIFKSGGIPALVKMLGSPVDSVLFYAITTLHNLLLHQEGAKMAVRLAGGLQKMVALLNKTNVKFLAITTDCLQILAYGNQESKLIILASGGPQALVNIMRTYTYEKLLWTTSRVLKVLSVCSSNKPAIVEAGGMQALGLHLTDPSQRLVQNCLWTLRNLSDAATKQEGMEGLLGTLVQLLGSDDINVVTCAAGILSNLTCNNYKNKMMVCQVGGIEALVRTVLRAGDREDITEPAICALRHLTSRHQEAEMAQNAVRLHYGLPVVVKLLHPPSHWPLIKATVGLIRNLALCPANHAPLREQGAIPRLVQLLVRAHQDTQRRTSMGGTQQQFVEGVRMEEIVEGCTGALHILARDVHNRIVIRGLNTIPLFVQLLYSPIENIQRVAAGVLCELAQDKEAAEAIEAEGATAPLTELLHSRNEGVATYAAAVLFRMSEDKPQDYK


Columns and labels:
[1] = target: armadillo (ARM) repeat domain of human β-catenin (residues 134–671) (human) (UniProt P35222); test: other fluorescence titration; competition: 20 nM Alexa-488-APCbc and 200 nM β-catenin incubated 30 min, then unlabelled APCbc variants titrated; PBS, 1 mM DTT; 25°C
[2] = target: T1, armadillo (ARM) repeat domain of human …; test: stopped-flow fluorescence; association: 25 nM fluorescein-labelled APC mixed 1:1 by volume with 250-2,000 nM β-catenin (pseudo first-order); dissociation: pre-formed 1:1 complex (200 nM) mixed with 10 times molar excess of the same APC construct; PBS, 1 mM DTT; 15°C; settings: both partners purified
[3] = target: T1, armadillo (ARM) repeat domain of human …; test: fluorescence polarisation; fluorescence anisotropy; β-catenin titrated into 10 nM fluorescein-labelled APC construct; PBS, 1 mM DTT; 15°C; adjusted anisotropy fitted to a Hill equation; settings: both partners purified
[4] = target: T1, armadillo (ARM) repeat domain of human …; test: as above; settings: both partners purified; remark: listed apart in the source

| Molecule | fold increase in affinity (IC50) against APCbc [1] [fold] | Kd [3] [nM] | also measured |
| --- | --- | --- | --- |
| APCbc S1505E (S2), unlabelled (from UniProt P25054 1483-1533) (domain or fragment) | 5 | – | – |
| APCbc S1507E (S3), unlabelled (from UniProt P25054 1483-1533) (domain or fragment) | 30 | – | – |
| APC R3 construct with E1494T (domain or fragment, not fully specified) SGPKQAAVNAAVQRVQVLPDADTLLHFATTSTPDGFSC(fluorescein‑maleimide)SSSLSALSLDEPFIQKDVELRIMPPVQEND | – | – | Kd [4]: > 5000 nM |
| APCabc D1486S, fluorescein-labelled at Cys 1501 (domain or fragment) SGPKQAAVNAAVQRVQVLPDASTLLHFATESTPDGFSC(fluorescein‑maleimide)SSSLSALSLDEPFIQKDVELRIMPPVQEND | – | 2050 | – |

The next lines start with results.

| fold increase in affinity (IC50) against APCbc [1] [fold] | Kd [3] [nM] | Molecule | also measured |
| --- | --- | --- | --- |
| – | 89.9 | GSSGPKQAAVNAAVQRVQVLPDADTLLHFATESTPDGFSC(fluorescein‑maleimide) (domain or fragment, two residues left at the N-terminus after thrombin cleavage of GST; adenomatous polyposis coli (APC), R3 region, subdomains a (1465-1483) and b (1483-1502); source: E. coli C41, purified (glutathione-Sepharose, thrombin cleavage on the resin, differential filtration); not shown: GST, N-terminal, cleaved) [APCab, APC R3 subdomains a and b, fluorescein-labelled at Cys 1501] | kon [2]: 1.33e+07 M⁻¹ s⁻¹ |
| – | 246 | GSPDADTLLHFATESTPDGFSC(fluorescein‑maleimide) (domain or fragment, two residues left at the N-terminus after thrombin cleavage of GST; adenomatous polyposis coli (APC), R3 region, subdomain b, residues 1483-1502; source: E. coli C41, purified (glutathione-Sepharose, thrombin cleavage on the resin, differential filtration); not shown: GST, N-terminal, cleaved) [APCb, lysine-binding domain b of APC R3, fluorescein-labelled at Cys 1501] | – |
